{"source": "patent US20160068860A1", "about": "“TRANSGENIC PLANTS” (CONSEJO SUPERIOR DE INVESTIGACIONES CIENTIFICAS (CSIC), priority 2013, published 2016)", "molecules": {"B1": {"name": "PYL4H82R V97A (AtPYL H82 and V97A) (receptor)", "chain": "MLAVHRPSSAVSDGDSVQIPMMIASFQKRFPSLSRDSTAARFHTHEVGPNQCCSAVIQEISAPISTVWSVVRRFDNPQAYKRFLKSCSVIGGDGDNAGSLRQVHVVSGLPAASSTERLDILDDERHVISFSVVGGDHRLSNYRSVTTLHPSPISGTVVVESYVVDVPPGNTKEETCDFVDVIVRCNLQSLAKIAENTAAESKKKMSL", "notes": "also called PYL4H82R (found combined with V97A)"}, "B2": {"name": "PYL4A194T: AtPYL4 ABA receptor mutant polypeptide with A194T substitution (SEQ ID NO. 60; nucleic acid SEQ ID NO: 55); also over-expressed in plants (protein, listed as Arabidopsis thaliana)", "chain": "B1 chain with R82H, A97V, A194T"}}, "key": {"[1]": {"tested_on": "PP2CA", "test": "BiFC assay with PP2CA in N. benthamiana leaves", "format": "cell-based", "details": "no exogenous ABA", "protocol": "Experiments were performed basically as described by Voinnet et al., (2003). The different binary vectors described above where introduced into Agrobacterium tumefaciens C58C1 (pGV2260) (Deblaere et al., 1985) by electroporation and transformed cells were selected in LB plates supplemented with kanamycin (50 μg/ml). Then, they were grown in liquid LB medium to late exponential phase and cells were harvested by centrifugation and resuspended in 10 mM morpholinoethanesulphonic (MES) acid-KOH pH 5.6 containing 10 mM MgCl2 and […] acetosyringone to an OD600 nm of 1. These cells were mixed with an equal volume of Agrobacterium C58C1 (pCH32 35S:p19) expressing the silencing suppressor p19 of tomato bushy stunt virus (Voinnet et al., 2003) so that the final density of Agrobacterium solution was about 1. Bacteria were incubated for 3 h at room temperature and then injected into young fully expanded leaves of 4-week-old N. benthamiana plants. Leaves were examined after 3-4 days under a Leica TCS-SL confocal microscope and laser scanning confocal imaging system. Quantification of fluorescent protein signal was done as described (Gampala et al., 2007) using the National Institutes of Health (NIH) Image software ImageJ v1.37. […]"}, "[2]": {"tested_on": "Arabidopsis thaliana plants", "test": "Root growth assay of OE lines on ABA", "format": "in vivo", "details": "10 μM ABA, 10 d after transfer", "protocol": "Seedlings were grown on vertically oriented MS plates for 4 to 5 days. Afterwards, 20 plants were transferred to new MS plates lacking or supplemented with the indicated concentrations of ABA. The plates were scanned on a flatbed scanner after 10-d to produce image files suitable for quantitative analysis of root growth using the NIH software ImageJ v1.37. As an indicator of shoot growth, the maximum rosette radius was measured."}, "[3]": {"tested_on": "Arabidopsis thaliana plants", "test": "Stomatal aperture by whole leaf imaging", "format": "in vivo", "details": "OE plants; steady-state conditions", "protocol": "(§1) 2-3 weeks-old seedlings grown in MS plates were used for water-loss assays. Four seedlings per genotype with similar growth, three independent experiments, were submitted to the drying atmosphere of a flow laminar hood. Kinetic analysis of waterloss was performed and represented as the percentage of initial fresh weight loss at each scored time point. Stomatal aperture measurements were done in leaves of 5-week-old plants grown under greenhouse conditions using whole leaf imaging (Chitrakar and Melotto, 2010). Staining of whole leaves with propidium iodide was conducted and the aperture of 30-40 stomata (ratio width/length, two independent experiments) was measured using a Leica TCS-SL confocal microscope."}, "[4]": {"tested_on": "Arabidopsis thaliana plants", "test": "Water-loss assays of OE lines", "format": "in vivo", "details": "for water loss under drought stress: greenhouse, leaves detached after 11-d without irrigation", "protocol": "as §1\nPlants grown under greenhouse conditions (10 individuals per experiment, three independent experiments) were grown under normal watering conditions for 15 days and then subjected to drought stress by stopping irrigation during 20 days. Next, watering was resumed and survival rate was calculated after 3 days by counting the percentage of plants that had more than four green leaves. Photographs were taken at the start of the experiment (day 0), after 16 and 19 days of drought, and 3 days after rewatering. Shoot-growth and water-loss were measured as follows. Quantification of shoot-growth was performed at 2, 5, 7 and 9 d after stopping irrigation (day 0) by measuring the maximum rosette radius of the plants. Water-loss measurements were done in two leaves from each plant that were detached 11 d after the start of the experiment, next weighted, incubated in de-mineralized water for 3 h and weighed again. The difference in weight was considered as water loss and related to the initial fresh weight (μl H2O/g FW)."}, "[5]": {"biological_target": "T1, PP2CA (clade A protein phosphatase 2C, At3g11410) (Arabidopsis thaliana, UniProt P49598 1-399, limits assumed)", "T1 construct": "BiFC: PP2CA-YFPN (pSPYNE-35S); also called AtPP2CA", "T1 sequence (looked up)": "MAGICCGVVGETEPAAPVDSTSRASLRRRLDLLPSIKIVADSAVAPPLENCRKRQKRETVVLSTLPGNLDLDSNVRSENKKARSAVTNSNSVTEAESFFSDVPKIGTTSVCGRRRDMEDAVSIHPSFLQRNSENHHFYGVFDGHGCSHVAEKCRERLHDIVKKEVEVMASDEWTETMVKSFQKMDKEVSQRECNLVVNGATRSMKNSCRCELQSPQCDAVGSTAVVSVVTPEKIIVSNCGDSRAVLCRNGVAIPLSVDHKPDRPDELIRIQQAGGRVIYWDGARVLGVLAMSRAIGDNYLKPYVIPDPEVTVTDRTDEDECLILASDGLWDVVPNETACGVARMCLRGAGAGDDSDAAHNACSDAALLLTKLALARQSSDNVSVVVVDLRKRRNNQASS", "test": "yeast two-hybrid growth assay, absence of ABA; H82R was found combined with V97A"}, "[6]": {"tested_on": "RD29B", "test": "Quantitative RT-PCR of ABA-responsive gene RD29B in OE plants", "format": "in vivo, Arabidopsis thaliana", "protocol": "ABA treatment, RNA extraction and quantitative RT-PCR amplifications were performed as previously described (Saez et al., 2004)."}}, "note": "Substitutions are numbered along the chain they refer to. Numbers in names are those of the source.", "data": [{"molecule": "PYL4: AtPYL4 wild type ABA receptor polypeptide (SEQ ID NO:3, At2g38310) [reference compound]", "values": [{"measurement": "localization of interaction with PP2CA", "setting": "[1]", "result": "localized mostly to the nucleus"}, {"measurement": "ABA-mediated inhibition of root growth", "setting": "[2]", "result": "enhanced ABA-mediated inhibition of root growth compared to non-transformed plants"}, {"measurement": "stomatal aperture", "setting": "[3]", "result": "more closed than those of non-transformed Col plants"}, {"measurement": "water loss under drought stress", "setting": "[4]", "result": "reduced water loss compared to non-transformed plants"}]}, {"molecule": "B1", "values": [{"measurement": "binding result", "setting": "[5]", "result": "binds"}]}, {"molecule": "B2", "values": [{"measurement": "localization of interaction with PP2CA", "setting": "[1]", "result": "relatively much more abundant in the cytosol compared to PYL4"}, {"measurement": "ABA-mediated inhibition of root growth", "setting": "[2]", "result": "enhanced ABA-mediated inhibition of root growth compared to non-transformed plants"}, {"measurement": "induction of RD29B after ABA-treatment", "setting": "[6]; 10 μM ABA for 3 h", "result": "not higher than in non-transformed plants"}, {"measurement": "expression of RD29B up-regulated compared to non-transformed plants", "setting": "[6]; absence of exogenous ABA treatment", "result": 23, "unit": "fold"}, {"measurement": "stomatal aperture", "setting": "[3]", "result": "more closed than those of non-transformed Col plants"}, {"measurement": "water-loss kinetics", "setting": "[4]; 15-d-old seedlings, drying atmosphere of a laminar flow hood", "result": "lost less water than non-transformed or PYL4 OE lines"}, {"measurement": "water loss under drought stress", "setting": "[4]", "result": "reduced water loss compared to non-transformed Col and PYL4 OE plants"}]}]}
